Source: paper PMC11574045, “A cofactor-induced repressive type of transcription factor condensation can be induced by synthetic peptides to suppress tumorigenesis” (The EMBO Journal, 2024)

System: HEK293FT cells transfected with TF library
Assay: Screening of TF condensates based on fluorescent puncta
Type: cell-based
Details: Figure 1B numerical data; TF library screen, one value per transcriptional factor
Procedure, shortened: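 TF plasmids (final 1.6 μg/ml) reverse-transfected with PEI (4.8 μg/ml) into HEK293FT cells; after 60 h, cells cultured ±glucose for 12 h, fixed in 4% PFA and immunostained for Flag or GAL4 tags with Alexa 488 secondaries. Puncta scored by automated imaging of 50 random fields per well.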

Row | Molecule | Z score of condensed fraction
1 | RARB (protein, UniProt P10826 1-455, looked up) Retinoic acid receptor beta: MTTSGHACPVPAVNGHMTHYPATPYPLLFPPVIGGLSLPPLHGLHGHPPPSGCSTPSPATIETQSTSSEELVPSPPSPLPPPRVYKPCFVCQDKSSGYHYGVSACEGCKGFFRRSIQKNMIYTCHRDKNCVINKVTRNRCQYCRLQKCFEVGMSKESVRNDRNKKKKETSKQECTESYEMTAELDDLTEKIRKAHQETFPSLCQLGKYTTNSSADHRVRLDLGLWDKFSELATKCIIKIVEFAKRLPGFTGLTIADQITLLKAACLDILILRICTRYTPEQDTMTFSDGLTLNRTQMHNAGFGPLTDLVFTFANQLLPLEMDDTETGLLSAICLICGDRQDLEEPTKVDKLQEPLLEALKIYIRKRRPSKPHMFPKILMKITDLRSISAKGAERVITLKMEIPGSMPPLIQEMLENSEGHEPLTPSSSGNTAEHSPSISPSSVENSGVSQSPLVQ | -0.7014
2 | RBBP8 (protein, UniProt Q99708 1-897, looked up) DNA endonuclease RBBP8: MNISGSSCGSPNSADTSSDFKDLWTKLKECHDREVQGLQVKVTKLKQERILDAQRLEEFFTKNQQLREQQKVLHETIKVLEDRLRAGLCDRCAVTEEHMRKKQQEFENIRQQNLKLITELMNERNTLQEENKKLSEQLQQKIENDQQHQAAELECEEDVIPDSPITAFSFSGVNRLRRKENPHVRYIEQTHTKLEHSVCANEMRKVSKSSTHPQHNPNENEILVADTYDQSQSPMAKAHGTSSYTPDKSSFNLATVVAETLGLGVQEESETQGPMSPLGDELYHCLEGNHKKQPFEESTRNTEDSLRFSDSTSKTPPQEELPTRVSSPVFGATSSIKSGLDLNTSLSPSLLQPGKKKHLKTLPFSNTCISRLEKTRSKSEDSALFTHHSLGSEVNKIIIQSSNKQILINKNISESLGEQNRTEYGKDSNTDKHLEPLKSLGGRTSKRKKTEEESEHEVSCPQASFDKENAFPFPMDNQFSMNGDCVMDKPLDLSDRFSAIQRQEKSQGSETSKNKFRQVTLYEALKTIPKGFSSSRKASDGNCTLPKDSPGEPCSQECIILQPLNKCSPDNKPSLQIKEENAVFKIPLRPRESLETENVLDDIKSAGSHEPIKIQTRSDHGGCELASVLQLNPCRTGKIKSLQNNQDVSFENIQWSIDPGADLSQYKMDVTVIDTKDGSQSKLGGETVDMDCTLVSETVLLKMKKQEQKGEKSSNEERKMNDSLEDMFDRTTHEEYESCLADSFSQAADEEEELSTATKKLHTHGDKQDKVKQKAFVEPYFKGDERETSLQNFPHIEVVRKKEERRKLLGHTCKECEIYYADMPAEEREKKLASCSRHRFRYIPPNTPENFWEVGFPSTQTCMERGYIKEDLDPCPRPKRRQPYNAIFSPKGKEQKT | 0.03488
3 | BARHL2 (protein, UniProt Q9NY43 1-387, looked up) BarH-like 2 homeobox protein: MTMEGASGSSFGIDTILSSASSGSPGMMNGDFRPLGEARTADFRSQATPSPCSEIDTVGTAPSSPISVTMEPPEPHLVADATQHHHHLHHSQQPPPPAAAPTQSLQPLPQQQQPLPPQQPPPPPPQQLGSAASAPRTSTSSFLIKDILGDSKPLAACAPYSTSVSSPHHTPKQESNAVHESFRPKLEQEDSKTKLDKREDSQSDIKCHGTKEEGDREITSSRESPPVRAKKPRKARTAFSDHQLNQLERSFERQKYLSVQDRMDLAAALNLTDTQVKTWYQNRRTKWKRQTAVGLELLAEAGNYSALQRMFPSPYFYHPSLLGSMDSTTAAAAAAAMYSSMYRTPPAPHPQLQRPLVPRVLIHGLGPGGQPALNPLSSPIPGTPHPR | 1.061
